{
  "source": "paper PMC6820557",
  "about": "“Discovery of dual-activity small-molecule ligands of Pseudomonas aeruginosa LpxA and LpxD using SPR and X-ray crystallography” (Scientific Reports, 2019)",
  "proteins": {"B1": {"name": "biotinylated avidity (Avi) tagged LpxD (enzyme, Pseudomonas aeruginosa, UniProt Q9HXY6 1-353, looked up)", "chain": "MMSTLSYTLGQLAAHVGAEVRGDADLPIQGLATLQEAGPAQLSFLANPQYRKYLPESRAGAVLLTAADADGFAGTALVVANPYLAYASLSHLFDRKPKAAAGIHPTAIVAADAEVDPSASVGAYAVIESGARIGAGVSIGAHCVIGARSVIGEGGWLAPRVTLYHDVTIGARVSIQSGAVIGGEGFGFANEKGVWQKIAQIGGVTIGDDVEIGANTTIDRGALSDTLIGNGVKLDNQIMIAHNVQIGDHTAMAACVGISGSAKIGRHCMLAGGVGLVGHIEICDNVFVTGMTMVTRSITEPGSYSSGTAMQPAAEWKKSAARIRQLDDMARRLQQLEKRLAAVTSSGDASSDA", "modifications": "biotin (on the Avi tag)", "notes": "LpxD, Pseudomonas aeruginosa; gene inserted into the BamHI and HindIII sites of the pAvibir plasmid; printed mass of Avi-LpxD 39.8 kDa; also called Avi-LpxD; source: E. coli Rosetta DE3 pLysS, purified (HisTrap, Superdex 75)"}, "B2": {"name": "N-terminal His-tagged P. aeruginosa LpxD with a 2 amino acid deletion (enzyme, Pseudomonas aeruginosa, UniProt Q9HXY6 3-353, looked up)", "chain": "STLSYTLGQLAAHVGAEVRGDADLPIQGLATLQEAGPAQLSFLANPQYRKYLPESRAGAVLLTAADADGFAGTALVVANPYLAYASLSHLFDRKPKAAAGIHPTAIVAADAEVDPSASVGAYAVIESGARIGAGVSIGAHCVIGARSVIGEGGWLAPRVTLYHDVTIGARVSIQSGAVIGGEGFGFANEKGVWQKIAQIGGVTIGDDVEIGANTTIDRGALSDTLIGNGVKLDNQIMIAHNVQIGDHTAMAACVGISGSAKIGRHCMLAGGVGLVGHIEICDNVFVTGMTMVTRSITEPGSYSSGTAMQPAAEWKKSAARIRQLDDMARRLQQLEKRLAAVTSSGDASSDA", "notes": "LpxD, Pseudomonas aeruginosa; they lay immediately after the N-terminal 18-AA hexahistidine tag and protease site (thrombin site replaced by a TEV site); Parent construct is that of the published structure (PDB 3PMO), with the thrombin site replaced by a TEV site; The mutagenesis primer reads ENLYFQG followed by STLSYT; Two of the deposited entries 6UEC, 6UED, 6UEE, 6UEG hold this construct; also …"}, "B3": {"name": "P. aeruginosa LpxA (enzyme, Pseudomonas aeruginosa)", "chain": "MSLIDPRAIIDPSARLAADVQVGPWSIVGAEVEIGEGTVIGPHVVLKGPTKIGKHNRIYQFSSVGEDTPDLKYKGEPTRLVIGDHNVIREGVTIHRGTVQDRAETTIGDHNLIMAYAHIGHDSVIGNHCILVNNTALAGHVHVDDWAILSGYTLVHQYCRIGAHSFSGMGSAIGKDVPAYVTVFGNPAEARSMNFEGMRRRGFSSEAIHALRRAYKVVYRQGHTVEEALAELAESAAQFPEVAVFRDSIQSATRGITR", "notes": "LpxA, Pseudomonas aeruginosa; Two of the deposited entries 6UEC, 6UED, 6UEE, 6UEG hold this protein"}, "B4": {"name": "biotinylated avidity (Avi) tagged LpxA (enzyme, Pseudomonas aeruginosa, UniProt Q9X6P4 1-258, looked up)", "chain": "B3 chain", "modifications": "biotin (on the Avi tag)", "notes": "LpxA, Pseudomonas aeruginosa; gene inserted into the BamHI and HindIII sites of the pAvibir plasmid; printed mass of Avi-LpxA 31.6 kDa; also called Avi-LpxA; source: E. coli Rosetta DE3 pLysS, purified (HisTrap, Superdex 75)"}},
  "key": {"[1]": {"molecular_target": "the molecule itself", "test": "SEC; HiLoad 16/60 Superdex 75; 20 mM Tris pH 8.6, 250 mM NaCl, 1 mM EDTA"}, "[2]": {"molecular_target": "the molecule itself", "test": "SEC; HiLoad 16/60 Superdex 75; 20 mM Tris-HCl pH 8.6, 250 mM NaCl"}, "[3]": {"molecular_target": "the molecule itself", "test": "crystal structure; LpxA soaked with compound 1 (2.10 Å) or compound 2 (2.00 Å); P212121, six monomers per asymmetric unit; 12% PEG 1000, 0.2 M calcium acetate, 0.1 M imidazole pH 7.0"}},
  "data": [
    {"protein": "B1", "values": [
      {"measurement": "stoichiometry N", "setting": "[1]", "result": 3}
    ]},
    {"protein": "B2", "values": [
      {"measurement": "stoichiometry N", "setting": "[2]", "result": 3}
    ]},
    {"protein": "B3", "values": [
      {"measurement": "binding result", "setting": "[3]", "result": "binds"}
    ]},
    {"protein": "B4", "values": [
      {"measurement": "stoichiometry N", "setting": "[1]", "result": 3}
    ]}
  ]
}
